Consider 18 molecules from US20210403601A1 (FAPON BIOTECH, published 2021).

The labels stand for the following.
B1: Mutation 1-1 (antibody, V domains shown)
VH: QVQLQQPGAELVKPGASVRLSCQTSVDTFTTYYIYWVKQRPGEGLEWIGGINPTSNPVFNEKFKSKATLTVDTSSSTAYMQLSSLTSVDSAVYYCTRSIVRRGYYFDYWGQGTALTVSS
VL: DIQMTQTTSSLSASLGDRVTISCRASQDINNYVNWYQQKPDGTIKLLIYYTSRLQSGVPSRFSGSGSGTDYSLTIANLEQEDIATYFCQQDDTIPITFGAGTKVELKR
notes: Mutation 1 background; CDRs built
B2: Mutation 1-20 (antibody, V domains shown)
VH: QVQLQQPGAELVKPGASVRLSCQTSVETFTTYYIYWVKQRPGEGLEWIGGLNPTSNPVFNEKFKSKATLTVDTSSSTAYMQLSSLTSVDSAVYYCTRSIIRRGYYFDYWGQGTALTVSS
VL: DIQMTQTTSSLSASLGDRVTISCRASQDIQNYLNWYQQKPDGTIKLLIYYTSRLNSGIPSRFSGSGSGTDYSLTIANLEQEDIATYFCQQDDTIPLTFGAGTKVELKR
notes: as for B1
B3: Mutation 1-17 (antibody, V domains shown)
VH: QVQLQQPGAELVKPGASVRLSCQTSVNTFTTYYIYWVKQRPGEGLEWIGGLNPTSGGPVFNEKFKSKATLTVDTSSSTAYMQLSSLTSVDSAVYYCTRSLIRRGYYFDYWGQGTALTVSS
VL: DIQMTQTTSSLSASLGDRVTISCRASQDINNYINWYQQKPDGTIKLLIYYTSRLNSGLPSRFSGSGSGTDYSLTIANLEQEDIATYFCQQDDTLPLTFGAGTKVELKR
notes: as for B1
B4: Mutation 1-18 (antibody, V domains shown)
VH: QVQLQQPGAELVKPGASVRLSCQTSVDTFTTYYIYWVKQRPGEGLEWIGGVNPTSNPVFNEKFKSKATLTVDTSSSTAYMQLSSLTSVDSAVYYCTRSILRRGYYFDYWGQGTALTVSS
VL: DIQMTQTTSSLSASLGDRVTISCRASQDIQNYVNWYQQKPDGTIKLLIYYTSRLQSGIPSRFSGSGSGTDYSLTIANLEQEDIATYFCQQDDTIPVTFGAGTKVELKR
notes: as for B1
B5: Mutation 1-47 (antibody, V domains shown)
VH: QVQLQQPGAELVKPGASVRLSCQTSVDTFTTYYIYWVKQRPGEGLEWIGGVNPTSNPVFNEKFKSKATLTVDTSSSTAYMQLSSLTSVDSAVYYCTRSIIRRGYYFDYWGQGTALTVSS
VL: DIQMTQTTSSLSASLGDRVTISCRASQDINNYINWYQQKPDGTIKLLIYYTSRLNSGLPSRFSGSGSGTDYSLTIANLEQEDIATYFCQQDDTIPVTFGAGTKVELKR
notes: as for B1
B6: Mutation 1-28 (antibody, V domains shown)
VH: QVQLQQPGAELVKPGASVRLSCQTSVDTFSTYYIYWVKQRPGEGLEWIGGINPTSNPVFNEKFKSKATLTVDTSSSTAYMQLSSLTSVDSAVYYCTRSIVRRGYYFDYWGQGTALTVSS
VL: DIQMTQTTSSLSASLGDRVTISCRASQDIQNYINWYQQKPDGTIKLLIYYTSRLHSGIPSRFSGSGSGTDYSLTIANLEQEDIATYFCQQDDTIPITFGAGTKVELKR
notes: Mutation 1 background; CDRs built; also called Mutation 148
B7: Mutation 1-2 (antibody, V domains shown)
VH: QVQLQQPGAELVKPGASVRLSCQTSVETFSTYYIYWVKQRPGEGLEWIGGLNPTSNPVFNEKFKSKATLTVDTSSSTAYMQLSSLTSVDSAVYYCTRSIIRRGYYFDYWGQGTALTVSS
VL: DIQMTQTTSSLSASLGDRVTISCRASQDIQNYLNWYQQKPDGTIKLLIYYTSRLQSGLPSRFSGSGSGTDYSLTIANLEQEDIATYFCQQDDTIPLTFGAGTKVELKR
notes: as for B1
B8: Mutation 1-27 (antibody, V domains shown)
VH: QVQLQQPGAELVKPGASVRLSCQTSVNTFTTYYIYWVKQRPGEGLEWIGGVNPTSNPVFNEKFKSKATLTVDTSSSTAYMQLSSLTSVDSAVYYCTRSILRRGYYFDYWGQGTALTVSS
VL: DIQMTQTTSSLSASLGDRVTISCRASQDINNYLNWYQQKPDGTIKLLIYYTSRLQSGIPSRFSGSGSGTDYSLTIANLEQEDIATYFCQQDDTIPVTFGAGTKVELKR
notes: as for B1
B9: Mutation 1-54 (antibody, V domains shown)
VH: QVQLQQPGAELVKPGASVRLSCQTSVNTFTTYYIYWVKQRPGEGLEWIGGLNPTSNPVFNEKFKSKATLTVDTSSSTAYMQLSSLTSVDSAVYYCTRSILRRGYYFDYWGQGTALTVSS
VL: DIQMTQTTSSLSASLGDRVTISCRASQDIQNYVNWYQQKPDGTIKLLIYYTSRLNSGVPSRFSGSGSGTDYSLTIANLEQEDIATYFCQQDDTIPVTFGAGTKVELKR
notes: as for B1
B10: Mutation 1-12 (antibody, V domains shown)
VH: QVQLQQPGAELVKPGASVRLSCQTSVDTFSTYYIYWVKQRPGEGLEWIGGVNPTSNPVFNEKFKSKATLTVDTSSSTAYMQLSSLTSVDSAVYYCTRSVLRRGYYFDYWGQGTALTVSS
VL: DIQMTQTTSSLSASLGDRVTISCRASQDIQNYVNWYQQKPDGTIKLLIYYTSRLHSGIPSRFSGSGSGTDYSLTIANLEQEDIATYFCQQDDTVPVTFGAGTKVELKR
notes: as for B1
B11: Mutation 1-6 (antibody, V domains shown)
VH: QVQLQQPGAELVKPGASVRLSCQTSVDTFSTYYIYWVKQRPGEGLEWIGGVNPTSNPVFNEKFKSKATLTVDTSSSTAYMQLSSLTSVDSAVYYCTRSLLRRGYYFDYWGQGTALTVSS
VL: DIQMTQTTSSLSASLGDRVTISCRASQDIQNYVNWYQQKPDGTIKLLIYYTSRLNSGIPSRFSGSGSGTDYSLTIANLEQEDIATYFCQQDDTLPVTFGAGTKVELKR
notes: as for B1
B12: Mutation 1-5 (antibody, V domains shown)
VH: QVQLQQPGAELVKPGASVRLSCQTSVNTFTTYYIYWVKQRPGEGLEWIGGLNPTSGGPVFNEKFKSKATLTVDTSSSTAYMQLSSLTSVDSAVYYCTRSVIRRGYYFDYWGQGTALTVSS
VL: DIQMTQTTSSLSASLGDRVTISCRASQDINNYINWYQQKPDGTIKLLIYYTSRLHSGLPSRFSGSGSGTDYSLTIANLEQEDIATYFCQQDDTVPLTFGAGTKVELKR
notes: as for B1
B13: Mutation 1-10 (antibody, V domains shown)
VH: QVQLQQPGAELVKPGASVRLSCQTSVNTFSTYYIYWVKQRPGEGLEWIGGINPTSGGPVFNEKFKSKATLTVDTSSSTAYMQLSSLTSVDSAVYYCTRSIVRRGYYFDYWGQGTALTVSS
VL: DIQMTQTTSSLSASLGDRVTISCRASQDIQNYINWYQQKPDGTIKLLIYYTSRLQSGVPSRFSGSGSGTDYSLTIANLEQEDIATYFCQQDDTIPITFGAGTKVELKR
notes: as for B1
B14: Mutation 1-36 (antibody, V domains shown)
VH: QVQLQQPGAELVKPGASVRLSCQTSVETFSTYYIYWVKQRPGEGLEWIGGINPTSNPVFNEKFKSKATLTVDTSSSTAYMQLSSLTSVDSAVYYCTRSILRRGYYFDYWGQGTALTVSS
VL: DIQMTQTTSSLSASLGDRVTISCRASQDIQNYVNWYQQKPDGTIKLLIYYTSRLQSGIPSRFSGSGSGTDYSLTIANLEQEDIATYFCQQDDTIPLTFGAGTKVELKR
notes: as for B1
B15: Mutation 1-48 (antibody, V domains shown)
VH: QVQLQQPGAELVKPGASVRLSCQTSVETFSTYYIYWVKQRPGEGLEWIGGINPTSNPVFNEKFKSKATLTVDTSSSTAYMQLSSLTSVDSAVYYCTRSVLRRGYYFDYWGQGTALTVSS
VL: DIQMTQTTSSLSASLGDRVTISCRASQDIQNYVNWYQQKPDGTIKLLIYYTSRLQSGVPSRFSGSGSGTDYSLTIANLEQEDIATYFCQQDDTVPLTFGAGTKVELKR
notes: as for B1
B16: Mutation 1-42 (antibody, V domains shown)
VH: QVQLQQPGAELVKPGASVRLSCQTSVETFSTYYIYWVKQRPGEGLEWIGGINPTSNPVFNEKFKSKATLTVDTSSSTAYMQLSSLTSVDSAVYYCTRSLLRRGYYFDYWGQGTALTVSS
VL: DIQMTQTTSSLSASLGDRVTISCRASQDIQNYVNWYQQKPDGTIKLLIYYTSRLQSGLPSRFSGSGSGTDYSLTIANLEQEDIATYFCQQDDTLPLTFGAGTKVELKR
notes: as for B1
B17: Mutation 1-4 (antibody, V domains shown)
VH: QVQLQQPGAELVKPGASVRLSCQTSVNTFSTYYIYWVKQRPGEGLEWIGGINPTSGGPVFNEKFKSKATLTVDTSSSTAYMQLSSLTSVDSAVYYCTRSVVRRGYYFDYWGQGTALTVSS
VL: DIQMTQTTSSLSASLGDRVTISCRASQDIQNYINWYQQKPDGTIKLLIYYTSRLHSGVPSRFSGSGSGTDYSLTIANLEQEDIATYFCQQDDTVPITFGAGTKVELKR
notes: as for B1
B18: Mutation 1-57 (antibody, V domains shown)
VH: QVQLQQPGAELVKPGASVRLSCQTSVETFSTYYIYWVKQRPGEGLEWIGGVNPTSNPVFNEKFKSKATLTVDTSSSTAYMQLSSLTSVDSAVYYCTRSVLRRGYYFDYWGQGTALTVSS
VL: DIQMTQTTSSLSASLGDRVTISCRASQDINNYLNWYQQKPDGTIKLLIYYTSRLQSGVPSRFSGSGSGTDYSLTIANLEQEDIATYFCQQDDTVPVTFGAGTKVELKR
notes: as for B1

T1 sequence (P19821 whole entry): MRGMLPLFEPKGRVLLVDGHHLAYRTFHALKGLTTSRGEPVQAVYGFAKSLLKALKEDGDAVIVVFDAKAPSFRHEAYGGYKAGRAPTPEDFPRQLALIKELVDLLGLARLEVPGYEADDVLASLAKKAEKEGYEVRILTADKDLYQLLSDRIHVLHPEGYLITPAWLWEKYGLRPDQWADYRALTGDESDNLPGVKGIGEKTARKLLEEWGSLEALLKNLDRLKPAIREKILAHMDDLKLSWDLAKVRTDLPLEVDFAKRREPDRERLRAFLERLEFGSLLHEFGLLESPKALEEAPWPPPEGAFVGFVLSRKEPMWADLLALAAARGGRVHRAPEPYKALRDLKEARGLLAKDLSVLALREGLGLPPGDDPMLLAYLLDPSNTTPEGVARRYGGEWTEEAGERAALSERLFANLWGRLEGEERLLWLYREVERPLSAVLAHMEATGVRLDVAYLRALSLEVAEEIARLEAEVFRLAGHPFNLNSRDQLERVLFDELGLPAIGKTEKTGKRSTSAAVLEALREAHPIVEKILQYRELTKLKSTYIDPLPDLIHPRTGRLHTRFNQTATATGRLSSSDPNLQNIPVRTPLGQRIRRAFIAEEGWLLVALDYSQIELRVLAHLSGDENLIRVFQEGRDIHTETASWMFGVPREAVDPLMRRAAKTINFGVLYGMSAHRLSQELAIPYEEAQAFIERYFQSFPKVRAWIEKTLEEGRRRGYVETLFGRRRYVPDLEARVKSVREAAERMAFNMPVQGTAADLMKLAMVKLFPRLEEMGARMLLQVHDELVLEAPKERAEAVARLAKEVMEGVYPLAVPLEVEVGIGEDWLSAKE

This assay concerns the target T1, Taq DNA polymerase (Thermus aquaticus, UniProt P19821 1-832).
T1 construct: also called Taq enzyme; Taq DNA enzyme
The experiment in a line: AMC sensor, antibody immobilised.
The molecule B1 gave a Kd of 0.491 nM, a dissociation rate constant (koff) of 1.58e-05 s⁻¹ and a kon of 32200 M⁻¹ s⁻¹.

The molecule B2 returned a Kd of 0.728 nM, an off-rate (koff) of 6.43e-05 s⁻¹ and a kon of 88300 M⁻¹ s⁻¹.

B3 gave a Kd of 0.398 nM, a koff of 1.36e-05 s⁻¹ and a kon of 34000 M⁻¹ s⁻¹.

In turn, B4 yielded a Kd of 0.677 nM, a koff of 4.5e-05 s⁻¹ and a kon of 66400 M⁻¹ s⁻¹.

As for B5, binding was put at a Kd of 0.739 nM, the off-rate constant (koff) was determined as 4.67e-05 s⁻¹ and the on-rate (kon) was found to be 63200 M⁻¹ s⁻¹.

As to B6, the Kd amounted to 0.402 nM, the koff is 2.61e-05 s⁻¹ and the kon amounted to 65000 M⁻¹ s⁻¹.

Consider B7, for which the Kd was 0.285 nM, the koff was 1.42e-05 s⁻¹ and the kon was 49700 M⁻¹ s⁻¹.

Regarding B8, the Kd worked out at 0.028 nM, the koff is 2.03e-06 s⁻¹ and the kon was determined as 72400 M⁻¹ s⁻¹.

Consider B9, for which the Kd was 0.273 nM, the koff was determined as 1.01e-05 s⁻¹ and the kon was 37200 M⁻¹ s⁻¹.

As to B10, the Kd stood at 0.022 nM, the koff turned out to be 2.05e-06 s⁻¹ and the kon is 93400 M⁻¹ s⁻¹.

B11 yielded a Kd of 0.808 nM, a koff of 3.41e-05 s⁻¹ and a kon of 42100 M⁻¹ s⁻¹.

As to B12, binding was characterised by a dissociation constant (Kd) of 0.873 nM, the koff stood at 7.78e-05 s⁻¹ and the kon was determined as 89100 M⁻¹ s⁻¹.

As to B13, the dissociation constant (Kd) is 0.384 nM, the koff was found to be 3.76e-05 s⁻¹ and the kon came out at 98000 M⁻¹ s⁻¹.

In the case of B14, the Kd was determined as 0.768 nM, the koff amounted to 3.85e-05 s⁻¹ and the kon came to 50200 M⁻¹ s⁻¹.

In turn, B15 showed a Kd of 0.384 nM, a koff of 3.72e-05 s⁻¹ and a kon of 97900 M⁻¹ s⁻¹.

Molecule B16 displayed a Kd of 0.803 nM, a koff of 3.75e-05 s⁻¹ and a kon of 46700 M⁻¹ s⁻¹.

As for B17, binding was characterised by a dissociation constant (Kd) of 0.719 nM, the koff amounted to 2.75e-05 s⁻¹ and the kon is 38200 M⁻¹ s⁻¹.

With B18, the affinity, expressed as Kd, was 0.362 nM; the koff came to 2.49e-05 s⁻¹; the kon came out at 69000 M⁻¹ s⁻¹.

Broadly, the Kd is a measure of binding affinity in units of concentration. Low values mean a tighter complex, high ones a looser complex. A word on the koff: it is the rate constant with which the complex falls apart. For orientation: kon means a measure of how fast the partners come together. The low end stands for slow association, the high end for fast association.
